The nature of this series: soluble fraction after stress (log2 fold change); higher = more stays soluble; pooled small domains, quantitative proteomics. The conditions noted are these: stress: pH 4. An outline of the steps:
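Pooled custom libraries of small protein domains were stressed at pH 4 and then measured by high-throughput quantitative proteomics. The fold change in the amount of each domain that stays soluble after the acid stress serves as a measure of aggregation propensity. Fold changes are given on a log2 scale, and higher values mean more of the domain stayed soluble.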
For the sequence “HMEPEAKIDFILKAAQKRLGLYGYEKTTMQEIAADINMSKAALYYYFPDKESLFKAVVENEQEEYFH”, the “soluble fraction (log2)” value was -1.24.
For the sequence “HMEPEDVIAMERYLASGAIKGIGVTLAGRIIKKFQKETFHIIEEEPERLSEVKGISEKLAREIYQQFTQK”, the “soluble fraction (log2)” value is -0.187.
“HMEPERRHLEVPAEAEGERIDRFLASQLENLSRSRIQALIKAGYVRNRRGTIEDPGLRVKPGDAFVVDLPP”: the “soluble fraction (log2)” value came out at 0.255.
Regarding “HMEPEVEITYFKPDERKAGGAYVTVTGAVIKVDDFERLITMQDGTKIPMDDILSIDGELFLS”, the “soluble fraction (log2)” value was -1.08.
On to “HMEPGEVQVDGLRFIAQPQERNDFEVALEQFRAGNFAAARKSFAAFINTYKQSGYLPSARFW”, for which the “soluble fraction (log2)” value is -0.152.
With “HMEPLKLGDATGDGKINLQDVLEMQKHMAGILVLKGKFFTAADVNGNGKIELVDVLSVQKYLAGVTAEV”, the “soluble fraction (log2)” value was -0.0932.
On to “HMEPLVSKVFQVSYQKTADLVALIKSEDSKLLSARGTLISDERTSQIFVQDTPTRLERISMIVNGL”, for which the “soluble fraction (log2)” value is -0.895.
Take “HMEPMNMYSSIKKVIGVVSGKGGVGKSLVTASLARMMRAKGYHVGIMDADITGPSIPKMYGLHEMA”: the “soluble fraction (log2)” value turned out to be 0.0444.
For “HMEPVDYEALRKELMQKVMGLFTQSRDVGIQILSSFGAKKLSDVPDDKLVAFAASVDKALAG” the value was 0.138; for “HMEPVQFIQFKIPDGHPWSGQLLREVRLPPGTLVVLLKHDGKNIIPNGETPLLAGDSVILSAASPT”, -0.459.
Turning to “HMEQAAQPQTGFDPRRLKAGDAVHLLALDQRGVLLEDPKPGAESAPVSVGVAGVRVVVPLREMEALPAG”, the “soluble fraction (log2)” value is -0.0942.
With “HMEQEVLDLLFDAIRSLPEKYRRLFDMSFEQGLKNAEIAALLHVSESAVKKQKASMIQQLRDDLLRKTGKD” the figure was -0.564; with “HMEQFDFTILRELRKRAGLSIGEVSAESGVSAAVISKLERNRTRAELDTLYRLARVFGITAAELLNLAEA”, -1.76.
As to “HMEQIETIFLSAAPYARTHIIHLLETSELFRDKYLTIVETSNGLLIYTEDKNRLLGILNSLT”, the “soluble fraction (log2)” value was -1.24.
Consider “HMEQIFTELIMDGRVLGENLHRMGVDETWLLRQLRQQGYHSAREVFLAVADANKQVAVYPVS”, for which the “soluble fraction (log2)” value was -0.776.
Regarding “HMEQINVTIQTEKGRIDKVLSEHLPNHSRSQIQQWLKEKHVTVNGETVRANYKVTAGDEIVVTIPEPEV”, the “soluble fraction (log2)” value was -0.18.
With “HMEQISDEDTLRKMVNEVLDNNQTQLEQYKSGKTNLIGFFVGQTLKKSAGKANPSIVNKLVNEEIYI” the figure was 0.0623; with “HMEQISIETRIEQLLARLSETEASGFEELFADTSSRADLITTFLALLEMIRLKLVRVFQDGSFGPIRIYKR”, -1.5; with “HMEQKISVPALVGRDIEEILADTEVTGNFTIKEADKRVASNRPVGEVLEQDPGTGESAVKGTIITVTVSAG”, -0.353.
With “HMEQNTKAYEQVRTLTDLLNQYRHEYYNLSAPSVSDQEYDRLFDALAALEKQTGIVMSNSPTQTVG” the figure was -0.497.
As to “HMEQPAPSTTVDILGGGRAALVTANRELGLALADDEIDYLTDSFTQLGRNPVDVELMMFAQA”, the “soluble fraction (log2)” value is -0.224.
On to “HMEQSLNTYSIRTVKESLFLAETKNLNKIEKLVEGIEGRLTLSEALVLFSDKLNAMSVLSHVNANT”, for which the “soluble fraction (log2)” value was -0.273.
As for “HMEQTIKKYVNVATLNFRSGPSTSYSIISTLSKGTKVEVISTTNNWSKIIYDGKIGYVSSEYLSKSI”, the “soluble fraction (log2)” value is ≥ 0.43.
For “HMEQVPEAVGRRVRQARSDRGWTLDQLAERSEVSRRMIVNVEAGTSNASIATLLRLATALNVGLAELVA”, the “soluble fraction (log2)” value was -0.685.
“HMEQVVFNGTGRRKSSIARVRIMSGKGNITVNGKALDEYFGEETLKVIVRQPLTVTDTLDKYDVIATVK”: the “soluble fraction (log2)” value is -0.0364.
With “HMEQYYVFFAGGMTIGTKEWYESILPENIATSYDDILEGKMMPASLEQIEFYNSHKDYDLYHLFYML”, the “soluble fraction (log2)” value was -1.4.
Regarding “HMERAFRILELFDLKQDELPITEIAERTGLPISTAHRLLSTLETLGYIAQNPDNGRYRLGLQTFVLGSR”, the “soluble fraction (log2)” value is -1.3.
With “HMERAPAYPDGLTQREVEVLRLIASGKTDREIAEELFIGVRTVSTHVGNILNKTNSANRTEAASYANQQGL”, the “soluble fraction (log2)” value was -1.53.
As to “HMEREQNIAQGREVVQRELKRLGLTDVFTVEDIGRALKFDDIDEFLSKVGFGDIQTAKITGAIALMQQALR”, the “soluble fraction (log2)” value is -0.84.
Regarding “HMEREQNIEHGRAIVERELKRLGLSDVYTIADIATALRHDDVDQFLAKIGFGDIQSTQIGGAIAALQQR”, the “soluble fraction (log2)” value is -0.328.
With “HMEREQPFAVTEAYRGMRLDRFLQAMLPRMSRAAIQDAIDNRVRLGSGRAAKASLRPAIGDTVFFGQRI” the figure was -0.17.
On to “HMERFRQVNAGMTRDDIYQLLGKPTEKTPFPLKNEEVWSWRHQADGQTVALFNIHLDPDGRVTTTSQSMDL”, for which the “soluble fraction (log2)” value was -1.32.
“HMERFVVISKDKYANLREEASTNSKVLAKVDNSYLIYNTNTYNENKDWYSVQIERDGNYYQVGYIHKSQL”: the “soluble fraction (log2)” value was -1.82.
Turning to “HMERLKRVTLSLNQSNYSVTEIARRLQAITGIKDITVVEDEQAVYLKVDPATFDLTLAQQAV”, the “soluble fraction (log2)” value was -0.653.
Take “HMERLLVSKINGMITEAKVSVEDVVKVVASRGHYPEVKSIDEYPDDFLSRWVVPNFKKIVEMINANKEA”: the “soluble fraction (log2)” value came out at 0.239.
“HMERMTSTEILTRDFLTTNSKIVKKSTIEELSEIIHVSPATIIRTVKKMGYSGFSEYKNELINQ”: the “soluble fraction (log2)” value is 0.0482.
As for “HMERPEVVAYRLAYASAESLRPALGLVASPSDLEIDERTNTLIVRAVPSVQERVAELVASLDI”, the “soluble fraction (log2)” value is -0.889.
With “HMERPKSLRELALEHLRNSIIDGSLKMGQVLSERKISEELGVSKSPVREALAQLRDEGLVSIEPQKGARV” the figure was 0.288; with “HMERPLFVIEDYRRFAGNEVEISLKKGGKKIRGVIAGTPSDAEVTVRTQGGETTVPLGDVKRAHLVYV”, 0.0919.
With “HMERRDEINSVVSRYVSAITEGKYDLAEVDETGKLRVQTEGREVLPEALSRGTLEQFYFAFRMAVGSI” the figure was -0.779.
With “HMERTQSIEAAREQLGEVTKDNVFETETLGALAILKENEPGEYAKIKADLKGKINMNDLERAVKKAAADQR” the figure was -0.0729; with “HMERYFVLVIYDIVDNKKRLKLSKYLLGYGIRVQKSAFEMMITKEKYNKLIKELPTYIEEGEDSIRLY”, -0.292; with “HMERYLLRDNIPNALHGERLDRVIAIMTGLSRSAVSALIKSNQVLRNGQIAQSISEKVVEGDELEVHLEP”, -0.465.
Consider “HMESDAIAAAIAALPARYREVLLLRYDNGFSYSEISKALDMTEAAVRKTVQRAKEALQRTLQIQEEDT”, for which the “soluble fraction (log2)” value is -0.219.
On to “HMESDRVAHVVAPGETLFSISGKYGIGMGELVAANPVLESRPPRTGDTLLIRLPENPLPAETDAETLS”, for which the “soluble fraction (log2)” value was -0.858.
For “HMESIAEIDRMNAKIFMDEFQDSLSIMQKTTNPETFFSRYDLAMERLDNMVELQQKGIKFTSDLSSLKAQ”, the “soluble fraction (log2)” value is -0.564.
Turning to “HMESIEGMYKISLLRKQGNAYVIFEDENKEAVEHIFPEKPTALELGTKVIEMFEYKERYDGLI”, the “soluble fraction (log2)” value was -0.781.
With “HMESILDDFPGLGEKRKKALLEHFGSISKIKAATVGQLREVDGIGFETAAALREFLDANFPA” the figure was 0.0668; with “HMESIPDELLEAFKQDPAFKQAFYALTAGRQRGYIIHFSQPKQSQTRIGRIEKYKEQIFNGIGLN”, -0.125.
“HMESKPLTPSEIKKLRMDANMTQAGLAEVLGMTVKAVEAWESGRNIPSGAADKILRVMQKHPSVIGMMQS”: the “soluble fraction (log2)” value is 0.247.
Regarding “HMESLNDRIKLVFKDSGLTQMDISKRLNIAQSSVSGIISGKANPSKRTLADIADRFDVNLEWLRDGTGPMK”, the “soluble fraction (log2)” value was found to be 0.199.
On to “HMESLSHRQKSIVDWVQKNGYASIERMAEQFEVSAQTIRRDVIELSERRILQRHHGGASLPAG”, for which the “soluble fraction (log2)” value is -0.17.
For “HMESNDSNIEDDFYEGLKSMRKGDLKMSVVFFTRVIEKKPTFAEAWNRRATVYYMLGKFDKSMFDINETLK” the value was -0.17.
For “HMESPELIHILKEAEWQIWQQIQGLPEKQRIAMTLFAMDDLSYQEIADVMKVSVSAIESLLFRARTQLKKY”, the “soluble fraction (log2)” value was -0.71.
Consider “HMESPLEQLTNRELQTLQMLGKGLSTKQIAAQLNLSVKTVETYRENLKRKLNLDSGSELIRYAIHRSNE”, for which the “soluble fraction (log2)” value is -0.0124.
For “HMESPLNPTDVRRAAMDLLARREHGVEELRLKLKRRFGREEDFETIATEQLQRLVDEDLLSDTRF” the value was -0.948; for “HMESRETGLPVVIISDGRILQDNLKRRGLDLSWLDKQLAEHGYPDFRDVFLLTVDEAGGVYFVPRE”, -0.145.
In the case of “HMESSNLESQLKKGIVPNLNGLSAKDALFLLENSGFNVKLYGMGSVKKQSLEAGKKYNKGDKITLIL”, the “soluble fraction (log2)” value stood at 0.219.
Turning to “HMESSYKGFILDIETRQFSPTLIQRRGIAINPSGIVETTTEFSFATQEKVLIEDLKLIIDELDLRADY”, the “soluble fraction (log2)” value is -2.31.
“HMESTLNYSQFLSLVNEDRVAEVVIQGKELYVTDVNRSRFKVYAPPDPELIGLLRQKRVIISAKP”: the “soluble fraction (log2)” value was found to be 0.203.
With “HMESVDRIYERVRRYADDVGTAKIPMKELDDDGPLGTAVSRIRERRKRGELTEEWEARFETLPGWTWAA” the figure was -0.265.
As to “HMESWEDSNIANEFKSTIKIAEKRLAEGGDHPELLEKLEALKQAIINENQTEASKLDDQVNDILFDMDD”, the “soluble fraction (log2)” value was -0.558.
As to “HMETEAGIKAYLSSSMIKGIGPVTAQRIVERFGKRTLYVLDQMPEKLLDISGISEAKLEEILNGYRKS”, the “soluble fraction (log2)” value is -0.532.
As for “HMETFGEKDLDELIGRNVELITHDGKVREGLVDSVDRYNVSLVRYLDAGEVAMMVRRREVKAVRLK”, the “soluble fraction (log2)” value was -1.12.
With “HMETFGLSQRELQILSQLHKGQPLKEFAASLFITESTLKTHLSAIYRKMSVKNRVQAIEKAKQSGL” the figure was -0.273; with “HMETGEDSLRRYFNSLPGSASKREILEDNPTVSQRTTERILQKLQAEGFIEKVGAARATRYRKVKQ”, 0.27.
With “HMETGELQQILEDVFSKNIGIVQDKREAAFSILMGMIMAKSRGRADGALVSTLLKKKLTEFLATSDQVR”, the “soluble fraction (log2)” value was -0.196.
Regarding “HMETGNEDYRVGKELAYDGNYKAATIYLMKSIKDDPNNPDAFNMLGFSHRKLGNNDEAYIYYNKALEL”, the “soluble fraction (log2)” value is -0.722.
For “HMETKKEIIEAINELEEKYRNAIYLTSIEKLSYEETSKILGQSLSNTKNLIHRGKQQLRKILIKK”, the “soluble fraction (log2)” value was -0.37.

The record behind these values is the domain aggregation screens of Martell et al. (2025).
